Experimental data published in patent publication US20260217814 (published 2026).

Tests used:
[1] = target: T1, human IL-17A (human); assay: SPR, direct setup
T1 chain: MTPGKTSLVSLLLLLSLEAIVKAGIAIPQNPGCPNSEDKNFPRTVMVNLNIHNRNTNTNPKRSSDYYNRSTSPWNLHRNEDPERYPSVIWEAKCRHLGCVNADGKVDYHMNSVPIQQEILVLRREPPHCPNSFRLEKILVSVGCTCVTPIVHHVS

[2] = target: T2, cynomolgus IL-17A (cynomolgus); assay: SPR
T2 chain: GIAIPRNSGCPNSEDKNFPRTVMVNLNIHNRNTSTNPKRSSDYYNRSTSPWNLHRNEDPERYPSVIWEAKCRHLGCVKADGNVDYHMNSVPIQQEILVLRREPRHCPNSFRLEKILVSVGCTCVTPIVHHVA

[3] = target: T3, IL-17C (human); assay: competition ELISA
T3 chain: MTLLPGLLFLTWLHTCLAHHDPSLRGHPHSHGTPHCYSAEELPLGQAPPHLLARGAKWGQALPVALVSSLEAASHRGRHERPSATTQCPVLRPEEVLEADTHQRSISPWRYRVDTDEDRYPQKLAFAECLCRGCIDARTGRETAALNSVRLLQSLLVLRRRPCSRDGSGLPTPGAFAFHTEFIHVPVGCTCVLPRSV

[4] = target: T4, IL-17E (human); assay: competition ELISA
T4 chain: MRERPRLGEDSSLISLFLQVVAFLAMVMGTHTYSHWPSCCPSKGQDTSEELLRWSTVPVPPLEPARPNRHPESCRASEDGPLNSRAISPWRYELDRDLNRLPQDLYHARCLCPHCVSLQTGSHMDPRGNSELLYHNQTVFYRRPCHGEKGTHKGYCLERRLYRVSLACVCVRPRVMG

[5] = target: T5, IL-17B (human); assay: competition ELISA
T5 chain: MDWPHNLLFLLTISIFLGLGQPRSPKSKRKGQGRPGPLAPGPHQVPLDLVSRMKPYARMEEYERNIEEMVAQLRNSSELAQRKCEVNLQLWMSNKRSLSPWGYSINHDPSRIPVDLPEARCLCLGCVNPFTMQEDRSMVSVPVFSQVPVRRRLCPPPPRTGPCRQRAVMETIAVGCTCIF

[6] = target: T6, IL-17D (human); assay: competition
T6 chain: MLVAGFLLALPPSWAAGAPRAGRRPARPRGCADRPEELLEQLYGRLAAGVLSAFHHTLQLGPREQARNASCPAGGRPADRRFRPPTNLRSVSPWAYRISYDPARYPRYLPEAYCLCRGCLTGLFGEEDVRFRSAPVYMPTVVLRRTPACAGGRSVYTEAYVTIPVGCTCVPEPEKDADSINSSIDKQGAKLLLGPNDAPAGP

[7] = target: T7, IL-17F (human); assay: competition ELISA
T7 chain: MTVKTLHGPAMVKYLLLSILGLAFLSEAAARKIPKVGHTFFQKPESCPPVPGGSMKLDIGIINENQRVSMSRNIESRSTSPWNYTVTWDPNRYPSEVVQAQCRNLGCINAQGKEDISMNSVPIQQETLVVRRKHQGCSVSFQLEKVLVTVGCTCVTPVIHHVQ

[8] = target: T8, human serum albumin (human, UniProt P02768); assay: SPR, pH 5.5
[9] = target: T8, human serum albumin; assay: SPR, pH 7.4
[10] = target: T1, human IL-17A; assay: SPR, capture setup
[11] = target: T1, human IL-17A; assay: SPR

B1: A1 (27-07-G02-sc01) (antibody)
chain: DIQMTQSPSSLSASVGDRVTITCQASQTINYWLAWYQQKPGKAPKLLIYRASTLASGVPSRFSGSGSGTDFTLTISSLQPEDFATYYCQNYYYSTSRSYGFGGGTKLTVLGGGGGSGGGGSGGGGSGGGGSEVQLVESGGGLVQPGGSLRLSCAASGFSFSSDYWMCWVRQAPGKGLEWIGCIYAGDVDDTDYASWARGRFTISRDNSKNTVYLQMNSLRAEDTAVYYCARVDGFDITYFDLWGQGTLVTVSS
What does the source list for B1?
Kd [1]: 0.14 nM; Kd [2]: 0.9 nM; binding result [3]: no binding; binding result [4]: no binding; binding result [5]: no binding; binding result [6]: no binding; binding result [7]: no binding

B2: A4 HSA arm (antibody)
chain 1: EVQLVESGGGLVQPGGSLRLSCAASGFSFSSDYWMCWVRQAPGKGLEWIGCIYAGDVDDTDYASWARGRFTISRDNSKNTVYLQMNSLRAEDTAVYYCARVDGFDITYFDLWGQGTLVTVSSASTKGPSVFPLAPSSKSTSGGTAALGCLVKDYFPEPVTVSWNSGALTSGVHTFPAVLQSSGLYSLSSVVTVPSSSLGTQTYICNVNHKPSNTKVDKKVEPKSCGGGGSGGGGSDIQMTQSPSSLSASVGDRVTITCQSSESVYSNNQLSWYQQKPGQPPKLLIYDASDLASGVPSRFSGSGSGTDFTLTISSLQPEDFATYYCAGGFSSSSDTAFGGGTKLTVLGGGGGSGGGGSGGGGSGGGGSEVQLVESGGGLVQPGGSLRLSCAASGFSLSSNAMGWVRQAPGKGLEYIGIISVGGFTYYASWAKGRFTISRDNSKNTVYLQMNSLRAEDTATYFCARDRHGGDSSGAFYLWGQGTLVTVSS
chain 2: DIQMTQSPSSLSASVGDRVTITCQASQTINYWLAWYQQKPGKAPKLLIYRASTLASGVPSRFSGSGSGTDFTLTISSLQPEDFATYYCQNYYYSTSRSYGFGGGTKLTVLGRTRTVAAPSVFIFPPSDEQLKSGTASVVCLLNNFYPREAKVQWKVDNALQSGNSQESVTEQDSKDSTYSLSSTLTLSKADYEKHKVYACEVTHQGLSSPVTKSFNRGECGGGGSGGGGSDIQMTQSPSSLSASVGDRVTINCQASESISSWLAWYQQKPGKRPKLLIYKASTLASGVPSRFSGSGSGTDYTLTISSLQPEDFATYYCQGYYLDSSVDDNVFGGGTKLTVLGGGGGSGGGGSGGGGSGGGGSEVQLVESGGGLVQPGGSLRLSCAASGIDFSTYGISWVRQAPGKGLEWIAYIYPDYGITDYASWVNGRFTISLDNAQNTVYLQMNSLRAEDTAVYYCARSGSYYSRGWGAHYFNLWGQGTLVTVSS
With B2 as the binder, how does the Kd [8] read?
The Kd was 1.67 nM.

What about the Kd [9] of the same binder?
Its Kd is 4.79 nM.

B3: PRO571 (27-31-C04-sc01) (antibody)
chain: DIQMTQSPSSLSASVGDRVTITCQASESIYRYLSWYQQKPGKAPKLLIYLASTLTSGVPSRFSGSGSGTDFTLTISSLQPEDFATYYCQSNFGTASTTYYNTFGGGTKLTVLGGGGGSGGGGSGGGGSGGGGSEVQLVESGGGLVQPGGSLRLSCAASGFSFSGFYYMCWVRQAPGKGLEWIGCIDTGDGTTYYASWAKGRFTISRDNSKNTVYLQMNSLRAEDTAVYYCARDAAYGGYAYPAHGMDLWGQGTLVTVSS
With B3 as the binder, how does the Kd [1] read?
Its Kd is 0.04 nM.

And the Kd [2]?
The Kd was 0.033 nM.

What about the Kd [10] of the same binder?
The Kd was 0.12 nM.

Does B3 bind [3]?
Result: no binding

Does B3 bind [4]?
Result: no binding

Does B3 bind [5]?
Result: no binding

Does B3 bind [6]?
Result: no binding

Does B3 bind [7]?
Result: no binding

B4: A3 HSA arm (antibody)
chain 1: EVQLVESGGGLVQPGGSLRLSCAASGFSLSSNAMGWVRQAPGKGLEYIGIISVGGFTYYASWAKGRFTISRDNSKNTVYLQMNSLRAEDTATYFCARDRHGGDSSGAFYLWGQGTLVTVSSASTKGPSVFPLAPSSKSTSGGTAALGCLVKDYFPEPVTVSWNSGALTSGVHTFPAVLQSSGLYSLSSVVTVPSSSLGTQTYICNVNHKPSNTKVDKKVEPKSCGGGGSGGGGSDIQMTQSPSSLSASVGDRVTITCQASQTINYWLAWYQQKPGKAPKLLIYRASTLASGVPSRFSGSGSGTDFTLTISSLQPEDFATYYCQNYYYSTSRSYGFGGGTKLTVLGGGGGSGGGGSGGGGSGGGGSEVQLVESGGGLVQPGGSLRLSCAASGFSFSSDYWMCWVRQAPGKGLEWIGCIYAGDVDDTDYASWARGRFTISRDNSKNTVYLQMNSLRAEDTAVYYCARVDGFDITYFDLWGQGTLVTVSS
chain 2: DIQMTQSPSSLSASVGDRVTITCQSSESVYSNNQLSWYQQKPGQPPKLLIYDASDLASGVPSRFSGSGSGTDFTLTISSLQPEDFATYYCAGGFSSSSDTAFGGGTKLTVLGRTRTVAAPSVFIFPPSDEQLKSGTASVVCLLNNFYPREAKVQWKVDNALQSGNSQESVTEQDSKDSTYSLSSTLTLSKADYEKHKVYACEVTHQGLSSPVTKSFNRGECGGGGSGGGGSDIQMTQSPSSLSASVGDRVTINCQASESISSWLAWYQQKPGKRPKLLIYKASTLASGVPSRFSGSGSGTDYTLTISSLQPEDFATYYCQGYYLDSSVDDNVFGGGTKLTVLGGGGGSGGGGSGGGGSGGGGSEVQLVESGGGLVQPGGSLRLSCAASGIDFSTYGISWVRQAPGKGLEWIAYIYPDYGITDYASWVNGRFTISLDNAQNTVYLQMNSLRAEDTAVYYCARSGSYYSRGWGAHYFNLWGQGTLVTVSS
Which Kd [8] does the source give for B4 here?
The Kd was 0.947 nM.

What about the Kd [9] of the same binder?
Its Kd is 1.37 nM.

B5: A3 IL-17A arm (antibody)
chain 1: EVQLVESGGGLVQPGGSLRLSCAASGFSLSSNAMGWVRQAPGKGLEYIGIISVGGFTYYASWAKGRFTISRDNSKNTVYLQMNSLRAEDTATYFCARDRHGGDSSGAFYLWGQGTLVTVSSASTKGPSVFPLAPSSKSTSGGTAALGCLVKDYFPEPVTVSWNSGALTSGVHTFPAVLQSSGLYSLSSVVTVPSSSLGTQTYICNVNHKPSNTKVDKKVEPKSCGGGGSGGGGSDIQMTQSPSSLSASVGDRVTITCQASQTINYWLAWYQQKPGKAPKLLIYRASTLASGVPSRFSGSGSGTDFTLTISSLQPEDFATYYCQNYYYSTSRSYGFGGGTKLTVLGGGGGSGGGGSGGGGSGGGGSEVQLVESGGGLVQPGGSLRLSCAASGFSFSSDYWMCWVRQAPGKGLEWIGCIYAGDVDDTDYASWARGRFTISRDNSKNTVYLQMNSLRAEDTAVYYCARVDGFDITYFDLWGQGTLVTVSS
chain 2: DIQMTQSPSSLSASVGDRVTITCQSSESVYSNNQLSWYQQKPGQPPKLLIYDASDLASGVPSRFSGSGSGTDFTLTISSLQPEDFATYYCAGGFSSSSDTAFGGGTKLTVLGRTRTVAAPSVFIFPPSDEQLKSGTASVVCLLNNFYPREAKVQWKVDNALQSGNSQESVTEQDSKDSTYSLSSTLTLSKADYEKHKVYACEVTHQGLSSPVTKSFNRGECGGGGSGGGGSDIQMTQSPSSLSASVGDRVTINCQASESISSWLAWYQQKPGKRPKLLIYKASTLASGVPSRFSGSGSGTDYTLTISSLQPEDFATYYCQGYYLDSSVDDNVFGGGTKLTVLGGGGGSGGGGSGGGGSGGGGSEVQLVESGGGLVQPGGSLRLSCAASGIDFSTYGISWVRQAPGKGLEWIAYIYPDYGITDYASWVNGRFTISLDNAQNTVYLQMNSLRAEDTAVYYCARSGSYYSRGWGAHYFNLWGQGTLVTVSS
For B5, which Kd [11] is on record?
Its Kd is 1.53 nM.
